# Experimental data published in patent US7030099B2, “Tumor specific promoters of the midkine gene that allow for selective expression in P53-inactivated cells” (Research Corporation Technologies, Inc., priority 2000, dated 2006).
# Tests used:
# [1] = tested on: lung cancer cells QG-56, neuroblastoma NGP; test: CAT assay of promoter transcription activity, tumor cells; format: cell-based, human; details: tumor cells versus normal cells
# Procedure: Using the above plasmid, or a plasmid pCAT-Control (manufactured by Promega) having the promoter of SV40 virus, and a plasmid pCAT-Basic (manufactured by Promega) containing no promoters, gene introduction was performed on the lung cancer cells QG-56, the neuroblastoma NGP, and the normal human fibroblasts MRC-5 that were being cultured in a DMEM (Sigma) supplemented with 10% bovine fetal serum. After 10 μg each of these plasmids and lipofectin (Life Technologies) were mixed, it was allowed to stand at room temperature for 30 minutes to form a complex. Then the complex, after removing the bovine fetal serum therefrom, was contacted with the cells. Eight hours later culture medium supplemented with bovine fetal serum was added, cultured for 40 hours, and then the gene-introduced cells were disrupted by ultrasonication. After centrifugation, the supernatants were used to examine their transcription activities with the known CAT assay method (Gorman, C M et al., Mol. Cell. Biol., 2:1044–1051, 1982) using [^14C]-chloramphenicol and acetyl CoA. At this time, in order to normalize the efficiency of gene introduction, 1 μg of the β-galactosidase gene (pCH110, manufactured by Amersham) was introduced at the same time, and the β-galactosidase activity (Heromel, P. et al., Cell, 39:653–662, 1984) was determined.
# normal MRC-5 cells = test: In vitro sensitivity to GCV of promoter-TK gene-introduced cells (Cell Counting Kit-8 survival); format: cell-based, human; details: HSV-TK gene controlled by the promoter, GCV seven days, FIG. 2A
# Procedure: (§1) (1) In order to examine cytotoxic effects by the transcription activity of the promoter obtained from the midkine gene, herpes simplex virus thymidine kinase (HSV-TK), a suicide gene, was ligated downstream of MK0.6 and MK2.3, and the plasmid was introduced in cells, and a prodrug gancyclovir (GCV) was added into the culture medium of the gene-introduced cells. The method of determining the cytotoxic effect by this system is as described in Moolten, FL. Cancer Gene Ther., 1:279–287, 1994.
# (§2) First, the CMV promoter of pcDNA3 (manufactured by Invitrogen) was removed using NruI and HindIII sites, to which MK2.3 or Mk0.6 was inserted, and then using the EcoRV site, the HSV-TK gene excised from pMK (Brinster, R L et al., Cell, 27:223–231, 1981) with BglI and EcoRI was inserted. Each of the plasmids thus obtained (MK2.3-TK and MK0.6-TK) was introduced, as described above, using lipofectin into MRC-5 which are normal cells, or MRC-5 cells that had been immortalized by inactivating the functions of the p53 tumor suppressor gene. In order to utilize the expression of the Neo gene contained in pcDNA3 as drug resistant markers, the cells were cultured with 400 μg/ml of G418 (manufactured by Life Technologies) for ten days to establish the cells that expressed MK2.3-TK and MK0.6-TK, respectively. These cells were then plated at 500 cells/well of 96-well culture plates, and were cultured in the presence of various concentrations of GCV (manufactured by F. Hoffman-La Roche) for seven days. The survival rate of the cells was examined using the Cell Counting Kit-8 (manufactured by Dojin Kagaku). The survival of the cells at a GCV concentration of 0 μg/ml was set as 100%, and the survival for each experiment group is shown in terms of percentage in FIG. 2A and FIG. 2B.
# [2] = tested on: immortalized MRC-5 cells (p53 functions inactivated); test: as above; format: cell-based, human; details: HSV-TK gene powered by the promoter, GCV seven days, FIG. 2B
# Procedure: as §1, §2
# [3] = tested on: human breast cancer cells OCUBM, MCF7, BT549; test: Luciferase assay of c-erbB-2 promoter activity, breast cancer cells; format: cell-based; details: FIG. 7A
# Procedure: With the transcription initiation site of the c-erbB-2 gene as +1, DNA that corresponded to a genomic region (p533) from −435 to +38 and that had the sequence set forth in SEQ ID NO: 7 was amplified by the PCR method, and then the DNA fragment was integrated into the pGEM-TEasy (manufactured by Promega), and the sequences of the PCR product was determined. Thus, after inserting this PCR product into the SmaI site of pGL2-Basic (manufactured by Promega), it was cleaved with BlnI/SmaI, PstI/SmaI, and BssHII/SmaI using the restriction enzyme sites present on the c-erbB-2 genomic gene to construct plasmids in which the genomic regions of c-erbB-2, p344 (−306/+38) (DNA having the base sequence set forth in SEQ ID NO: 8), p251 (−213/+38) (DNA having the base sequence set forth in SEQ ID NO: 9) and p124 (−86/+38) (DNA having the base sequence set forth in SEQ ID NO: 10) are localized upstream of the Firefly luciferase gene, respectively. Using the plasmid pGL2-Control (manufactured by Promega) having the promoter of SV40 virus and the plasmid pGL2-Basic (manufactured by Promega) containing no promoters, gene introduction was performed in human breast cancer cells OCUBM, MCF7, BT549, normal human fibroblasts HEF, MRC-5, human malignant melanoma A875, and human lung cancer cells QG-56, all of which were cultured in DMEM (Sigma) supplemented with 10% bovine fetal serum. Firstly, after 10 μg each of these plasmids and lipofectin (Life Technologies) were mixed, it was allowed to stand at room temperature for 30 minutes to form a complex of DNA and lipid. […] After 48 hours-culture, the cells were disrupted using the Dual-Luciferase Reporter Assay System (manufactured by Promega), and the Firefly luciferase activity therein was determined using the reagents in the same kit. In order to normalize the efficiency of gene introduction, 1 μg of pRL-TK plasmid (manufactured by Promega) was included in each gene-introduced group, and the Renilla luciferase activity by the TK promoter was determined, based on which the Firefly luciferase activity was corrected.
# [4] = tested on: human malignant melanoma A875, human lung cancer cells QG-56; test: Luciferase assay of c-erbB-2 promoter activity, non-breast tumor cells; format: cell-based; details: human malignant melanoma cells and human lung cancer cells; FIG. 7C
# Procedure: (§3) With the transcription initiation site of the c-erbB-2 gene as +1, DNA that corresponded to a genomic region (p533) from −435 to +38 and that had the sequence set forth in SEQ ID NO: 7 was amplified by the PCR method, and then the DNA fragment was integrated into the pGEM-TEasy (manufactured by Promega), and the sequences of the PCR product was determined. Thus, after inserting this PCR product into the SmaI site of pGL2-Basic (manufactured by Promega), it was cleaved with BlnI/SmaI, PstI/SmaI, and BssHII/SmaI using the restriction enzyme sites present on the c-erbB-2 genomic gene to construct plasmids in which the genomic regions of c-erbB-2, p344 (−306/+38) (DNA having the base sequence set forth in SEQ ID NO: 8), p251 (−213/+38) (DNA having the base sequence set forth in SEQ ID NO: 9) and p124 (−86/+38) (DNA having the base sequence set forth in SEQ ID NO: 10) are localized upstream of the Firefly luciferase gene, respectively. Using the plasmid pGL2-Control (manufactured by Promega) having the promoter of SV40 virus and the plasmid pGL2-Basic (manufactured by Promega) containing no promoters, gene introduction was performed in human breast cancer cells OCUBM, MCF7, BT549, normal human fibroblasts HEF, MRC-5, human malignant melanoma A875, and human lung cancer cells QG-56, all of which were cultured in DMEM (Sigma) supplemented with 10% bovine fetal serum. Firstly, after 10 μg each of these plasmids and lipofectin (Life Technologies) were mixed, it was allowed to stand at room temperature for 30 minutes to form a complex of DNA and lipid. Then the complex, after removing the bovine fetal serum therefrom, was contacted with the cells. Eight hours later culture medium supplemented with bovine fetal serum was added. After 48 hours-culture, the cells were disrupted using the Dual-Luciferase Reporter Assay System (manufactured by Promega), and the Firefly luciferase activity therein was determined using the reagents in the same kit. In order to normalize the efficiency of gene introduction, 1 μg of pRL-TK plasmid (manufactured by Promega) was included in each gene-introduced group, and the Renilla luciferase activity by the TK promoter was determined, based on which the Firefly luciferase activity was corrected.
# [5] = tested on: normal human fibroblasts HEF, MRC-5; test: Luciferase assay of c-erbB-2 promoter activity, normal fibroblasts; format: cell-based; details: FIG. 7B
# Procedure: as §3
Molecule,tumor-specificity of promoter activity [1],transcription activity compared with SV40 promoter [4],promoter activity compared with SV40 promoter [5],further results
"MK2.3: 2.3 kb of the human midkine genomic gene, base sequence SEQ ID NO: 3; previously reported promoter [reference compound]",weak,–,–,sensitivity to GCV compared to that of the parent strain (normal MRC-5 cells): 500 fold; sensitivity to GCV compared to that of the parent strain [2]: 1000 fold
"p124: c-erbB-2 genomic region −86/+38, SEQ ID NO: 10 (nucleic acid, listed as Homo sapiens, expressed or natural sequence) DNA: CGCGCTTGCTCCCAATCACAGGAGAAGGAGGAGGTGGAGGAGGAGGGCTGCTTGAGGAAGTATAAGAATGAAGTTGTGAAGCTGAGATTCCCCTCCATTGGGACCGGAGAAACCAGGGGAGCCC",–,lower than the SV40 promoter,–,transcription activity compared with other c-erbB-2 promoter fragments [3]: marked low compared with the p251 promoter
"p344: c-erbB-2 genomic region −306/+38, SEQ ID NO: 8 (nucleic acid, listed as Homo sapiens) DNA: CTAGGGAATTTATCCCGGACTCCGGGGGAGGGGGCAGAGTCACCAGCCTCTGCATTTAGGGATTCTCCGAGGAAAAGTGTGAGAACGGCTGCAGGCAACCCAGGCGTCCCGGCGCTAGGAGGGACGACCCAGGCCTGCGCGAAGAGAGGGAGAAAGTGAAGCTGGGAGTTGCCGACTCCCAGACTTCGTTGGAATGCAGTTGGAGGGGGCGAGCTGGGAGCGCGCTTGCTCCCAATCACAGGAGAAGGAGGAGGTGGAGGAGGAGGGCTGCTTGAGGAAGTATAAGAATGAAGTTGTGAAGCTGAGATTCCCCTCCATTGGGACCGGAGAAACCAGGGGAGCCC",–,lower than the SV40 promoter,more potent than the SV40 promoter activity in some cases,–
"p533: c-erbB-2 genomic region from −435 to +38, SEQ ID NO: 7; conventionally used promoter (nucleic acid, listed as Homo sapiens) DNA: GGGGGTCCTGGAAGCCACAAGGTAAACACAACACATCCCCCTCCTTGACTATCAATTTTACTAGAGGATGTGGTGGGAAAACCATTATTTGATATTAAAACAAATAGGCTTGGGATGGAGTAGGATGCAAGCTCCCCAGGAAAGTTTAAGATAAAACCTGAGACTTAAAAGGGTGTTAAGAGTGGCAGCCTAGGGAATTTATCCCGGACTCCGGGGGAGGGGGCAGAGTCACCAGCCTCTGCATTTAGGGATTCTCCGAGGAAAAGTGTGAGAACGGCTGCAGGCAACCCAGGCGTCCCGGCGCTAGGAGGGACGACCCAGGCCTGCGCGAAGAGAGGGAGAAAGTGAAGCTGGGAGTTGCCGACTCCCAGACTTCGTTGGAATGCAGTTGGAGGGGGCGAGCTGGGAGCGCGCTTGCTCCCAATCACAGGAGAAGGAGGAGGTGGAGGAGGAGGGCTGCTTGAGGAAGTATAAGAATGAAGTTGTGAAGCTGAGATTCCCCTCCATTGGGACCGGAGAAACCAGGGGAGCCC",–,–,more potent than the SV40 promoter activity in some cases,–
"MK1.0: 1.0 kb of the human midkine genomic gene, base sequence SEQ ID NO: 2 (nucleic acid, listed as Homo sapiens) DNA: GGCCGCGCTCGTCGGGGCCGGGCGGGGGCCGATCCCTCCGGCTTCCCTTCCCGCGGAGAACAACAATGAAAGTGAAAGAGGGGTGGGGCGGGGGCGAGCCCGGGTTCTGTGGCCCATTTGCCCTGTGGCCTTGAGCAAGCCCCTCCCCCAGGCCTCGGGGGCTCTCCCGGTTTGGGGGAACCGGGCGAGGCAATGCCACAGGCCCAGGGTTAGAGGGGGTGGGCACTTGCAGCTGCCGATGTGGCTGGATCTGGAACTTCTCAGACGGCTCCTGTCAGCGCCAAGTTTCACCAAATCCAGGCCTGCGGGCTCCTCCCCCAGGACCCCCACTCGCAGTCCCTCAAGCCTGTGCTCCCGGAAAGGCACTGGGCGACCGCACCCGTGGCTTTCTCTGGGCGACCGGGTCCCAGACTCCCCCCAGCACAGCAGAGCGCTTCCCTGCCCACCCGCGGAAACCGCCCCAGGTGGCCGCGCCCCCTCCCCAGCAGCCAGCAGGGCGCCAGGGCTGAGCCGGCCGTGGAGGGGAGCGGGTCCCGGGGGTTATACAGGCGCCGGGCGTCCGCGGCAGGCAAGAGAAGCTGAGGCCTGAGAACGGCCCGGGCCTTGGCGTACGGCAGGGGACGACCTGGGATGGGGGCAGCGGGCGGCGGCGCAGGGAGTGGGCCGGGGCCGGTGTGCGCGGGCGGGACGGGGCCGGGGTCGGGAGACCACCGCTCGGAAGATGGGGCCGGGAGAGGCCGCCGTCGCAGCGCAGAGGGCACCGGCGGGGAGACGCGAGGACGCGGGGCCGGGAACACGGACGCCGGAGTAGAAGCGCGGGGGGGGCGGGCTGGAGCGGGGGCGGGGACGCCGGGGTCGGGGGCGGTGCGGGTTTGAGGGGAGGGGGCGGGGCGGGTCCTTCCCTGGGGGGGTGGGGAGAGGGGGCGGGGGCCCATGTGACCGGCTCAGACCGGTTCTGGAGACAAAAGGGGCCGCGGCGGCCGGAGCGGGACGGGCCCGGCGCGGGAGGGAGCGAAGCAGCGCGGGCAGCGAGCGAGTGAG",weak,–,–,–
